This assay addresses recombinant importin α2-His (Laodelphax striatellus). The assay can be described thus: MST.

One may read the Kd as the equilibrium constant for the complex coming apart. As for NP-GST (natural protein), the Kd was 9.1 µM.
